Reference: US20250171534A1 (D2M BIOTHERAPEUTICS, published 2025)
Values belong to the binder of their own block, whether it stands above or below them.

What was measured:
[1] = molecular target: T1, human LILRB1 expressed on cells (human, UniProt Q8NHL6 24-650); test: flow cytometry, CHO-LILRB1 cells
T1 construct: In 293T cells it was expressed from pCMV3-LILRB1-GFP; also called CHO-LILRB1; Jurkat-LILRB1

[2] = molecular target: T2, human LILRB2 expressed on cells (human, UniProt Q8N423 22-597); test: flow cytometry, CHO-LILRB2 cells
T2 construct: In 293T cells it was expressed from pCMV3-LILRB2-GFP; also called CHO-LILRB2; Jurkat-LILRB2

[3] = molecular target: T3, LILRB1-ECD-HIS (SinoBiological Cat #: 16014-H02H) (human, UniProt Q8NHL6 24-461); test: SPR (Carterra LSA), antibody captured, antigen injected;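 further: kd obtained from kinetic analysis of antibody binding to the antigen, with association and dissociation phases fitted in the instrument software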
T3 construct: Bought protein; also called monomeric antigen LILRB1-ECD-HIS; not shown: His tag

[4] = molecular target: T4, LILRB2-ECD-HIS (SinoBiological Cat #: 14132-H02H) (human, UniProt Q8N423 22-460); test: as above
T4 construct: Bought protein; also called monomeric antigen LILRB2-ECD-HIS; not shown: His tag

[5] = molecular target: T2, human LILRB2 expressed on cells; test: flow cytometry, CHO-LILRB2 cells; remark: listed apart in the source
[6] = molecular target: T5, LILRA6 expressed on cells (human, UniProt Q6PI73 24-481); test: flow cytometry on 293T cells transiently expressing LILRA6, APC anti-human Fc; gMFI as fold to IgG staining
T5 construct: whole, on cells; GFP-tagged; also called human LILRA6; CHO-LILRA6

[7] = molecular target: T1, human LILRB1 expressed on cells; test: flow cytometry on 293T cells transiently expressing LILRB1, APC anti-human Fc; gMFI as fold to IgG staining
[8] = molecular target: T3, LILRB1-ECD-HIS (SinoBiological Cat #: …); test: BLI epitope binning (Gator)
[9] = molecular target: T4, LILRB2-ECD-HIS (SinoBiological Cat #: …); test: BLI epitope binning (Gator), monomeric antigen
[10] = molecular target: T6, LILRB3 expressed on cells (human, UniProt O75022 24-631); test: flow cytometry on 293T cells transiently expressing LILRB3, APC anti-human Fc; gMFI as fold to IgG staining
T6 construct: whole, on cells; Expressed with a GFP tag from the bought plasmid; also called human LILRB3; CHO-LILRB3

[11] = molecular target: T7, LILRA2 expressed on 293T cells (UniProt Q8N149 24-483, limits assumed); test: flow cytometry on 293T cells transiently expressing LILRA2, APC anti-human Fc; gMFI as fold to IgG staining
T7 construct: whole, on cells; GFP-tagged, transient

[12] = molecular target: T8, LILRA5 expressed on 293T cells (UniProt A6NI73 42-299, limits assumed); test: flow cytometry on 293T cells transiently expressing LILRA5, antibody 5 µg/mL, APC anti-human Fc; gMFI as fold to IgG staining
T8 construct: whole, on cells; GFP-tagged, transient

[13] = molecular target: T9, LILRA3 expressed on 293T cells (UniProt Q8N6C8 24-439, limits assumed); test: flow cytometry on 293T cells transiently expressing LILRA3, APC anti-human Fc; gMFI as fold to IgG staining
T9 construct: whole, on cells; GFP-tagged, transient

[14] = molecular target: T10, LILRB5 expressed on 293T cells (UniProt O75023 24-590, limits assumed); test: flow cytometry on 293T cells transiently expressing LILRB5, APC anti-human Fc; gMFI as fold to IgG staining
T10 construct: whole, on cells; GFP-tagged, transient
T10 sequence (O75023 24-590 limits assumed): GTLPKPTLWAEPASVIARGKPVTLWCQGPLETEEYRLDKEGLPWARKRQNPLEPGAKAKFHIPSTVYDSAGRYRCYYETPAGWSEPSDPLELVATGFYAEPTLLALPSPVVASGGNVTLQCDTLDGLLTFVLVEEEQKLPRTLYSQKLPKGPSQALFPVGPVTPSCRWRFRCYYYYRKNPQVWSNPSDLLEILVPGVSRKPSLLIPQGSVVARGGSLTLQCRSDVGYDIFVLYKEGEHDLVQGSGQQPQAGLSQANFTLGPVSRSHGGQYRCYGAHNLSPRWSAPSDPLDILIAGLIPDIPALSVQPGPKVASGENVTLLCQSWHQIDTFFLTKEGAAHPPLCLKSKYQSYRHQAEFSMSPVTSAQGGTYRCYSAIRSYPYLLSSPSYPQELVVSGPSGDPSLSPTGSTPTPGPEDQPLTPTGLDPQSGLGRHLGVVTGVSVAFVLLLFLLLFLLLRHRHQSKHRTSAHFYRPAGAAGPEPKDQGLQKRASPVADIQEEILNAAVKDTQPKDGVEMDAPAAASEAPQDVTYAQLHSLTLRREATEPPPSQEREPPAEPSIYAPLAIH

T2 sequence (Q8N423 other isoform, or with tags, fused parts or gaps limits assumed): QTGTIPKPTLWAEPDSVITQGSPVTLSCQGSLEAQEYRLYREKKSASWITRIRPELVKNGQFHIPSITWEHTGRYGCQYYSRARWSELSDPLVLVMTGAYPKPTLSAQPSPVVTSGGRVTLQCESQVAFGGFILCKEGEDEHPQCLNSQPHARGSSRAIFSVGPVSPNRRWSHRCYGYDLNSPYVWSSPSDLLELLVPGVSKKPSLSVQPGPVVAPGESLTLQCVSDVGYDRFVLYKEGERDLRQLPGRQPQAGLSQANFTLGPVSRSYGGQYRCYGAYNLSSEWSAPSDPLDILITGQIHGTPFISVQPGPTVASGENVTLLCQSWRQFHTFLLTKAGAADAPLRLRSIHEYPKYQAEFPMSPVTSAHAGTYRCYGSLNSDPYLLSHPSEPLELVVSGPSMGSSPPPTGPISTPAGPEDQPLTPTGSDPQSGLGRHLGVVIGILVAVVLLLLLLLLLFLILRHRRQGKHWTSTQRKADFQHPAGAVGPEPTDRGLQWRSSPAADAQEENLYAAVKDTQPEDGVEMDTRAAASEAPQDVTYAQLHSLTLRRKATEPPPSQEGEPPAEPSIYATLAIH
T1 sequence (Q8NHL6 other isoform, or with tags, fused parts or gaps limits assumed): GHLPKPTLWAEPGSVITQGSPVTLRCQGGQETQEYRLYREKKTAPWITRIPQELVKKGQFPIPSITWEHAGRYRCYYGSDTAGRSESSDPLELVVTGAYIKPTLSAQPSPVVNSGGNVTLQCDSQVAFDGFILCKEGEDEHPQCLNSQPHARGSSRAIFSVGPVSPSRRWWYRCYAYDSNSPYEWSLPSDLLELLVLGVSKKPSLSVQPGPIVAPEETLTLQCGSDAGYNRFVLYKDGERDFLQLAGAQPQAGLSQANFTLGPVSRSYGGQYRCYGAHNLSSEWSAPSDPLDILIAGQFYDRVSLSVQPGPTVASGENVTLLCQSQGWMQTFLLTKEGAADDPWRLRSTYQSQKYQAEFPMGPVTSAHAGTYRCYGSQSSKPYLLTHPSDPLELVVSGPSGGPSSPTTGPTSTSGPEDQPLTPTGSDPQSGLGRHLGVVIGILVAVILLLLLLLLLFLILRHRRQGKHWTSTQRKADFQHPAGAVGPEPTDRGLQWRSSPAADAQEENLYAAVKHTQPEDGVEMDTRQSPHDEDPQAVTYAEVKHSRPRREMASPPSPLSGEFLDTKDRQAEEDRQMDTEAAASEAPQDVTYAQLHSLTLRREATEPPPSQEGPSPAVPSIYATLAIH
T3 sequence (Q8NHL6 other isoform, or with tags, fused parts or gaps H02H H02H): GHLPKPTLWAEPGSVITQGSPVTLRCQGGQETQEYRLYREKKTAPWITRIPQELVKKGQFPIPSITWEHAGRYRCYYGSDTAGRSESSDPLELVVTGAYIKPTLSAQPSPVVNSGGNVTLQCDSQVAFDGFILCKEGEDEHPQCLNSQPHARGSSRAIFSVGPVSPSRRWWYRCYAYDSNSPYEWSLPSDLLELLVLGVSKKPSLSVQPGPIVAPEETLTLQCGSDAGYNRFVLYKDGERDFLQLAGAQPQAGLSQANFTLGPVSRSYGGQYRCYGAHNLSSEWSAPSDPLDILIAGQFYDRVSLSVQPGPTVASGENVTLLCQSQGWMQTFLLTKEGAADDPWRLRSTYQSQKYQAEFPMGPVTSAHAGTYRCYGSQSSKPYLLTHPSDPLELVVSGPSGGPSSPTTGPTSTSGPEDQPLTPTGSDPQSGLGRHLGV
T4 sequence (Q8N423 other isoform, or with tags, fused parts or gaps H02H H02H): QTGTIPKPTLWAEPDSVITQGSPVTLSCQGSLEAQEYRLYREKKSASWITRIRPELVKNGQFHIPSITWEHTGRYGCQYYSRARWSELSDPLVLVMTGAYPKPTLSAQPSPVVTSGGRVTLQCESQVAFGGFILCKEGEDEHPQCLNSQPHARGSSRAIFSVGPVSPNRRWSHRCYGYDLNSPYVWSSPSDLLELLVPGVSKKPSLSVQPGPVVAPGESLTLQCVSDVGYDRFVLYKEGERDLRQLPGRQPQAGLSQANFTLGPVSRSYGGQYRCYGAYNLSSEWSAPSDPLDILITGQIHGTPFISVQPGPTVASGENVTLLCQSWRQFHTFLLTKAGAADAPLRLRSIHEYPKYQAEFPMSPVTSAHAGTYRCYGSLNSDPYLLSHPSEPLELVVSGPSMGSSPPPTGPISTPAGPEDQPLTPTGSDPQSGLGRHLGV
T5 sequence (Q6PI73 24-481): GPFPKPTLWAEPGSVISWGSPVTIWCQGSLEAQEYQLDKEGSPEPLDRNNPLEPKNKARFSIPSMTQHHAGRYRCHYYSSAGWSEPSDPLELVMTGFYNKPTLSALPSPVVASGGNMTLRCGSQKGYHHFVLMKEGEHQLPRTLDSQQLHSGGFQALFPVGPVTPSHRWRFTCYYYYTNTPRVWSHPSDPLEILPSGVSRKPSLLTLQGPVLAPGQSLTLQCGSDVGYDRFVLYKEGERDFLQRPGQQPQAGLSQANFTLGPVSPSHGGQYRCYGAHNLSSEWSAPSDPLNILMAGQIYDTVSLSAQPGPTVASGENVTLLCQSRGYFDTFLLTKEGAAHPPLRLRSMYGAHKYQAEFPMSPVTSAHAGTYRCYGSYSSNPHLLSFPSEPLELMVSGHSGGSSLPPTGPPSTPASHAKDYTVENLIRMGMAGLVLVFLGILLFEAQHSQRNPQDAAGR
T8 sequence (A6NI73 42-299 limits assumed): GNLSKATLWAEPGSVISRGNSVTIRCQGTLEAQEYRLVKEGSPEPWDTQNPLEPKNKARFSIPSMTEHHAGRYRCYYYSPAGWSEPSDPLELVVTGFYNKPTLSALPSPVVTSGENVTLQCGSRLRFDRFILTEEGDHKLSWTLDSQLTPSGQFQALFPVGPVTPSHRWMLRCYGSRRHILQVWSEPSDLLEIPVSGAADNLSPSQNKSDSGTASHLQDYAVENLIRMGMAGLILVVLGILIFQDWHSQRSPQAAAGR
T7 sequence (Q8N149 24-483 limits assumed): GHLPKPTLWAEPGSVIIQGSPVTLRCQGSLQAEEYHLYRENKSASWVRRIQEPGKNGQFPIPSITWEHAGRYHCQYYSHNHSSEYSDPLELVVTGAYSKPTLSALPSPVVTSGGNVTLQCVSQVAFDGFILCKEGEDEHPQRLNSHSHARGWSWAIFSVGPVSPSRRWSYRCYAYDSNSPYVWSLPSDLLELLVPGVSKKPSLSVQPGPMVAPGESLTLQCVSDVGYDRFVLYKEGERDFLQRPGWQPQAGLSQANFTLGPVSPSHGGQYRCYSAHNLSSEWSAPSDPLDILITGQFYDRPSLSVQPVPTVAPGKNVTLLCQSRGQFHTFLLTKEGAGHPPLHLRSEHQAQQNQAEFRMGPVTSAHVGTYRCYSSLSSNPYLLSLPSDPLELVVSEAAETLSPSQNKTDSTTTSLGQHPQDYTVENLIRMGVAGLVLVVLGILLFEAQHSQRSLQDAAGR
T9 sequence (Q8N6C8 24-439 limits assumed): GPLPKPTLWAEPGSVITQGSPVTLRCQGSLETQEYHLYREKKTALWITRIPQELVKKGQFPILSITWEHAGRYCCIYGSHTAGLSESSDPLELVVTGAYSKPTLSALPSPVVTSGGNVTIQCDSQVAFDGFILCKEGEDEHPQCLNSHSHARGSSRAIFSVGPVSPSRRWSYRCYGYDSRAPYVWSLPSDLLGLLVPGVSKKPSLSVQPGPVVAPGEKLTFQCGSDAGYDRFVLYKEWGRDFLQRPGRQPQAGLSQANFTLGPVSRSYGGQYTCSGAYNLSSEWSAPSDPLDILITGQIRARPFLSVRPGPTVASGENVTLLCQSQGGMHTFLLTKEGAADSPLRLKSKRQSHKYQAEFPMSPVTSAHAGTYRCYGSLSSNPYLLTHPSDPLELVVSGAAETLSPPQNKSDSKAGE

binding result [1]: no binding (tested: 5 µg/mL)
EC50 (read off the curve) [2]: ~0.06 µg/mL
Kd [3]: 1000 nM
Kd [4]: 4.85 nM
EC50 [5]: 0.061 µg/mL
gMFI (max) [5]: 22900
B1: D2M002-044 (antibody, human IgG1, V domains shown)
VH: EVQLQQSGAELVRPGALVKLSCKGSGFNIKDYYMHWVRQRPEQGLEWIGWIDPENGNTVYAPKFQGKASITSDTSSNIAYLQFSSLTSEDTAVYYCARSRDHGAMDYWGQGTSVTVSS
VL: DVQITQSPAIMSASPGEKVTLTCSASSSVSSSNLYWYQQKPGSSPKLWIYSTSNLASGVPARFSGSGFGTSYALTISSMEAEDAASYFCHQWSSYPYTFGGGTKLEIK
notes: Hit; also called clone #44

binding result [6]: no binding (tested: 5 µg/mL)
binding result [7]: no binding (tested: 5 µg/mL)
binding result [8]: no binding
binding result [9]: binds
binding result [10]: no binding (tested: 5 µg/mL)
EC50 (read off the curve) [2]: ~0.04 µg/mL
binding result [11]: no binding (tested: 5 µg/mL)
binding result [12]: binds
binding result [13]: no binding (tested: 5 µg/mL)
binding result [14]: no binding (tested: 5 µg/mL)
EC50 [5]: 0.042 µg/mL
gMFI (max) [5]: 11800
B2: Anti-LILRB2 antibody 1E1(QE) (antibody, human IgG4 S228P, lambda, V domains shown)
VH: EVQLQQWGAGLLKPSETLSLTCAVYGGSFSGYYWSWIRQPPGKGLEWIGEINHSGSTNYNPSLKSRVTISVDTSKNQFSLKLSSVTAADTAVYYCARLPTRWVTTRYFDLWGRGTLVTVSS
VL: ESVLTQPPSVSGAPGQRVTISCTGSSSNIGAGYDVHWYQQLPGTAPKLLIYGNSNRPSGVPDRFSVSKSGASASLAITGLQAEDEADYYCQSFDNSLSAYVFGGGTQLTVLG
